PMC3434267

Assays:
[1] = molecular target: mGluR5 (endogenous, mouse) (mouse (endogenous in brain, spinal cord and cultured cortical neurons)) (UniProt Q3UVX5); assay: co-IP
[2] = molecular target: Homer (pan-Homer immunoprecipitation), DIV 14 cortical neurons (Figure 5c) (mouse (endogenous in cultured cortical neurons)); assay: co-IP

In the case of ERK1/2, mouse forebrain (Figure 5b), the co-IP in Preso1^−/− brain, % of WT [1] was 64.4 % of WT.

Work on “mGluR5 (endogenous, mouse) (from UniProt Q3UVX5 19-1203) (receptor)” yielded a co-IP in BDNF-treated Preso1^−/− neurons, % of untreated WT [2] of 69.8%, a co-IP in DHPG-treated Preso1^−/− neurons, % of untreated WT [2] of 54% and a co-IP in WT neurons after BDNF 30 min, % of untreated [2] of 158%. It also gave a co-IP in WT neurons after DHPG 30 min, % of untreated (% of untreated) [2] of 157, a co-IP in untreated Preso1^−/− neurons, % of untreated WT (BDNF series) [2] of 65.3% and a co-IP in untreated Preso1^−/− neurons, % of untreated WT (DHPG series) [2] of 47%.
